B1: 抗PAD4抗体2-1-47 (antibody, human IgG1, lambda, V domains shown)
VH: EVQLLESGGGLVQPGGSLRLSCAASGFTFSTYAMGWVRQAPGKGLEFVAAIRNDGSWTGYGTPYKTRFTISRDNSKNTLYLQMSSLRAEDTAVYYCAKYTGSSGGSIGAWGQGTLVTVSS
VL: SYELTQPPSVSVSPGQTARITCSGGNRNYYYGWYQQKPGQAPVTVIYANDKRPSGIPERFSGSNSGSTTTLTISGVQAEDEADYYCGTATTGKYVFGGGTKLTVLG
B2: 抗PAD4抗体3-2-37 (antibody, human IgG1, lambda, V domains shown)
VH: B1 VH with Y60I, T62Y, P63N, Y64Q, T66S, A97G
VL: B1 VL with T90L
B3: 抗PAD4抗体4-2-25 (antibody, human IgG1, lambda, V domains shown)
VH: B1 VH with G61P, T62P, Y64L, T66G
VL: B1 VL with T90Y
B4: 抗PAD4抗体3-1-39 (antibody, human IgG1, lambda, V domains shown)
VH: B1 VH with Y60T, G61S, T62V, P63N, Y64A
VL: B1 VL

Changes are numbered by the printed parent chain.

The experiment deals with ヒ卜PAD4(Cayman Chemical company、Cat. 10500) (human) (UniProt Q9UM07). Put plainly: SPR Biacore T200, stored antibody captured on Protein A chip, human PAD4 at 50 nM as analyte.
Sequence of UniProt Q9UM07 (Q9UM07 whole entry): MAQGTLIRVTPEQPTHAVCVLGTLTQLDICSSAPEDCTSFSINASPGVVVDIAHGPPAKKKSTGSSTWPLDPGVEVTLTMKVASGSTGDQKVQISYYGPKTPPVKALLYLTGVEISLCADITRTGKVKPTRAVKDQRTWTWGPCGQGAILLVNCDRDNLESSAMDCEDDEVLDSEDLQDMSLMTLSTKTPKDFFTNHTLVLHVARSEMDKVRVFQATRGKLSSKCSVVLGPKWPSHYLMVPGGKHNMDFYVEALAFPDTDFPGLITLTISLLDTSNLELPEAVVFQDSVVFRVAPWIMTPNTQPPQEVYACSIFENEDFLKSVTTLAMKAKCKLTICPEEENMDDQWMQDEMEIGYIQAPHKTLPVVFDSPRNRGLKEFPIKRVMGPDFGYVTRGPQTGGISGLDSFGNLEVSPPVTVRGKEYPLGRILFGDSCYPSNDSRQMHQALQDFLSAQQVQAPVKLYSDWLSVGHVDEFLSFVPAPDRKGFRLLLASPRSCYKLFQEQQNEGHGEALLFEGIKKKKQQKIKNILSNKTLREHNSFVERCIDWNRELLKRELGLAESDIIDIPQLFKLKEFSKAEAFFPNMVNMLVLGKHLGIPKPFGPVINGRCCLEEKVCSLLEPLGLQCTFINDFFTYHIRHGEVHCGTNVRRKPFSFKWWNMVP
On to B1, for which the 抗原結合活性 (relative antigen binding after 40℃ for 4 weeks against 4℃ for 4 weeks) is greater than 90%.
In turn, B2 returned a 抗原結合活性 (relative antigen binding after 40℃ for 4 weeks against 4℃ for 4 weeks) greater than 90%.
Then B3, with greater than 90%.
B4: the 抗原結合活性 (relative antigen binding after 40℃ for 4 weeks against 4℃ for 4 weeks) is greater than 90%.

The values are drawn from patent JP2024028198A.
